From patent publication US20190241653A1 (NATIONAL RESEARCH COUNCIL OF CANADA, published 2019)
Changes are numbered by the printed parent chain.

Key:
[1] = molecular target: receptor(s) of FC5 on SV-ARBEC cells (SV40-immortalized adult rat brain microvascular endothelial cells) (rat) (UniProt Q6AY41); experiment: Mirrorball microplate cytometry on SV-ARBEC cells in suspension, anti-c-myc Alexa 488 detection
[2] = molecular target: T1, receptor(s) of FC5 on HBEC-D3 cells (human microvascular brain endothelial cells) (human, UniProt Q9NV96 2-361); experiment: Mirrorball microplate cytometry on HBEC-D3 cells in suspension, anti-c-myc Alexa 488 detection
T1 construct: whole, on cells; The assay used whole, untransfected endothelial cells; also called human brain endothelial cells; TMEM30A
T1 sequence (looked up): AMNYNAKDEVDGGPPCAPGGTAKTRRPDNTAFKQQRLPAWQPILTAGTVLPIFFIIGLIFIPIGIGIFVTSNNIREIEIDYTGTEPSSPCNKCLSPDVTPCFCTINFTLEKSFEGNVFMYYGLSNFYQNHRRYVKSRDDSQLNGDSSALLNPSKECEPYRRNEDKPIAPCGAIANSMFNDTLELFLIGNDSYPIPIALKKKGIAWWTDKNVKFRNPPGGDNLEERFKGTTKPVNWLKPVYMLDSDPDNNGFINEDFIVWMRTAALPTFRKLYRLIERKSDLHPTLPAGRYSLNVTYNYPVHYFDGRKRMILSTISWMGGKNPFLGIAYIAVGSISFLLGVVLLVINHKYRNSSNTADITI
Experimental: Mirrorball 6 High Sensitivity Microplate Cytometry (TTP Labtech): All buffers and reagents were pre-chilled to 4° C. […] mM EDTA and Mirrorball assay buffer—Live Cell Imaging Solution, LCIB (Invitrogen, 140 mM NaCl, 2.5 mM KCl, 1.8 mM CaCl₂, 1.0 mM MgCl₂, 20 mM Hepes, pH 7.4, mOsm=300). A 20 μl volume of a 1:1 mix of LCIB and 0.5×PBS/2.5 mM EDTA was added to all wells of each 384 well Mirrorball assay plate (Corning 3712); with the exception of row A which received 40 μl of 1000 nM test VHH antibody. Serial dilutions were prepared for each test variant within the Mirrorball 384 well assay plate. A 16-channel Finn pipette (Thermo Scientific) was used to transfer 20 μl of VHH antibody from row A-columns 1-24 into row B-columns 1-24 mixing 8×, then transferring 20 μl of VHH antibody from row B-columns 1-24 into row C-columns 1-24 mixing 8×. Dilutions were repeated until row G-columns 1-24 to create 7 point curve for each VHH antibody variant. A second set of test VHH antibody variants (1000 nM) were added to row I-columns 1-24 and the dilution protocol was repeated until row 0-columns 1-24. Row H-columns 1-24 were reserved on each plate for the reference FC5-H7 VHH single domain antibody. Row P-columns 1-24 received no antibody; this was background control for non-specific binding of the secondary to the cells of interest; thus 48 variants could be tested on each 384 well Mirrorball assay plate. Immortalized adult rat brain microvascular endothelial cells (SV-ARBEC) and/or human microvascular brain endothelial cells (HBEC-D3) were dissociated in Accutase solution (Sigma Aldrich) to generate single cell populations. Cells were washed in LCIB then centrifuged at 200×g, 5 min to pellet. Wash buffer was removed and the cell pellet was re-suspended into 1 mL of LCIB. Cell number was calculated using a Bio-Rad TC20 automated cell counter with Trypan Blue dye to assess viability. The cells were diluted to 350,000 live cells/ml using LCIB. A fluorescent conjugate c-myc Alexa 488 detection antibody (1600 ng/ml, Santa Cruz Biotechnology) supplemented with Draq 5 nuclear stain (2 uM, Cell Signaling) was prepared in LCIB assay buffer.

B1: FC5 VHH (parental camelid single domain antibody) (VHH)
VHH: DVQLQASGGGLVQAGGSLRLSCAASGFKITHYTMGWFRQAPGKEREFVSRITWGGDNTFYSNSVKGRFTISRDNAKNTVYLQMNSLKPEDTADYYCAAGSTSTATPLRVDYWGKGTQVTVSS
notes: Llama-derived VHH expressed in E. coli in fusion with His5 and c-myc tags; also called FC5 camelid; sdAb FC5; not shown: His5 and c-myc tags
SV-ARBEC binding (MMFI at 1.3 µM antibody) [1]: 20.3 MMFI | HBEC-D3 binding (MMFI at 1.3 µM antibody) [2]: 39.1 MMFI

B2: FC5-H7 (VHH)
VHH: EVQLVESGGGLVQPGGSLRLSCAASGFKITHYTMGWFRQAPGKEREFVSRITWGGDNTFYSNSVKGRFTISRDNSKNTLYLQMNSLRAEDTAVYYCAAGSTSTATPLRVDYWGQGTLVTVSS
notes: Humanized variant of FC5, expressed with His5 and c-myc tags; not shown: His5 and c-myc tags
SV-ARBEC binding (MMFI at 1.3 µM antibody) [1]: 64.2 MMFI | HBEC-D3 binding (MMFI at 1.3 µM antibody) [2]: 72.8 MMFI

B3: FC5-H3 (VHH)
VHH: B2 VHH with E44G, R45L, L79V
notes: as for B2
SV-ARBEC binding (MMFI at 1.3 µM antibody) [1]: 40.2 MMFI | HBEC-D3 binding (MMFI at 1.3 µM antibody) [2]: 43.9 MMFI

B4: FC5-H1 (VHH)
VHH: B2 VHH with F37V, E44G, R45L, F47W
notes: as for B2
SV-ARBEC binding (MMFI at 1.3 µM antibody) [1]: 27 MMFI | HBEC-D3 binding (MMFI at 1.3 µM antibody) [2]: 66.4 MMFI

B5: FC5-H2 (VHH)
VHH: B2 VHH with F37V, E44G, R45L, F47W, L79V
notes: as for B2
SV-ARBEC binding (MMFI at 1.3 µM antibody) [1]: 23.1 MMFI | HBEC-D3 binding (MMFI at 1.3 µM antibody) [2]: 31 MMFI
